The target in one assay is complement component C3 (human, UniProt P01024 672-1663). Put plainly: cell-based or functional assay.
Assay [1] has as its target T1, C3b (biotinylated, captured on a streptavidin sensor chip) (UniProt P01024 749-1663, biotinylated (site not stated)).
T1 construct: range 727-1641; also called site-specifically immobilized C3b
Kind of assay: SPR (Biacore 3000), single-cycle kinetics, peptide over captured biotinylated C3b, 1:1 model, 25 °C. How it is done:
1.1 Interaction of Compstatin analogues with C3b. […] Individual injections within a cycle were 2 min long with a 5-min dissociation between injections. After the end of the last injection, a 40-min dissociation time was allowed. […] The kinetic evaluation was performed in BiaEvaluation using a single cycle kinetic template (kindly provided by GE Healthcare) by globally fitting each data set to a 1:1 Langmuir binding model to achieve association and dissociation rates (kₐ and kd, respectively); the equilibrium dissociation constant (KD) was calculated from the equation KD=kd/kₐ (FIG. 1). Each assay was performed at least twice.
^aSingle-cycle kinetic analysis of compstatin conjugates was performed. Sets of five increasing concentrations were consecutively injected over a C3b surface (3000-5000 RU density) in a single cycle. The processed signals were fitted to a 1:1 binding model.
(In general: SPR reads the build-up and loss of mass on a sensor chip optically.)

A further assay addresses baboon albumin (baboon). Kind of assay: SPR, albumin (6.3-100 µM) over immobilized biotinylated ABM2-Cp20; apparent affinity (KD app) from steady state, single-binding-site model. The source says:
1.2 Interaction of ABM-Compstatin conjugates with albumin.
To confirm the albumin-directed activity of the ABM-compstatin conjugates and further explore their simultaneous binding to C3 and albumin, we performed additional SPR binding studies. […] The biotinylated peptides were immobilized on a streptavidin-coated SPR sensor chip, and the interactions with albumins from different species (human, baboon, bovine, rabbit and mouse) were characterized (Table 3; FIG. 2).

Positions of bridges follow the written chain, without caps; N, C: chain ends. Non-standard residues stand in square brackets, D forms with d. *: point of attachment. ABM1 = 3-(naphthalene-2-sulfonamido)propanoic acid albumin-binding tag, amide-linked to N-terminus, O=C(CCNS(=O)(=O)c1ccc2ccccc2c1)*; ABM2 = diphenyl-cyclohexanol phosphate ester hexanoic acid tag; Trp(1-Me) = Cn1cc(C[C@H](N)C(=O)O)c2ccccc21; NMeI = CC[C@H](C)[C@H](NC)C(=O)O; Sar = CNCC(=O)O

T1 sequence (P01024 23-665 P314L limits assumed, chain 1 of 2): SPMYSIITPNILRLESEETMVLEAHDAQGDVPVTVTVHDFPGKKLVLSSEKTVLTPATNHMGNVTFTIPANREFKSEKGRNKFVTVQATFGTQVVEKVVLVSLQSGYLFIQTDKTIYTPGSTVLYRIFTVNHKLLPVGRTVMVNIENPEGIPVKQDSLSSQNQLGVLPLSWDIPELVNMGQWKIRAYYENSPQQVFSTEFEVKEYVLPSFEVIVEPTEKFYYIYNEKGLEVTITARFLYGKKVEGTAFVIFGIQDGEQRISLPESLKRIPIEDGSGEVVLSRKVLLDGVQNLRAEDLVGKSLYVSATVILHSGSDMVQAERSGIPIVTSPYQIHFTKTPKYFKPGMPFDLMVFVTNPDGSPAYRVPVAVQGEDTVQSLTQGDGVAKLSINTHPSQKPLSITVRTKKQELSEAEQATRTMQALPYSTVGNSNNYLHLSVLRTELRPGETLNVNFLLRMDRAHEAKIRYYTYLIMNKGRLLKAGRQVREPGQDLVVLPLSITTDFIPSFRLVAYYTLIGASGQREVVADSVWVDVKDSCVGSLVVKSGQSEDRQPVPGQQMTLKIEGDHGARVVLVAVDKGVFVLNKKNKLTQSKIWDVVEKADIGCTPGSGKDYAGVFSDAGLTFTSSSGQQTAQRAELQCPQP
T1 sequence (P01024 749-1663 limits assumed, chain 2 of 2): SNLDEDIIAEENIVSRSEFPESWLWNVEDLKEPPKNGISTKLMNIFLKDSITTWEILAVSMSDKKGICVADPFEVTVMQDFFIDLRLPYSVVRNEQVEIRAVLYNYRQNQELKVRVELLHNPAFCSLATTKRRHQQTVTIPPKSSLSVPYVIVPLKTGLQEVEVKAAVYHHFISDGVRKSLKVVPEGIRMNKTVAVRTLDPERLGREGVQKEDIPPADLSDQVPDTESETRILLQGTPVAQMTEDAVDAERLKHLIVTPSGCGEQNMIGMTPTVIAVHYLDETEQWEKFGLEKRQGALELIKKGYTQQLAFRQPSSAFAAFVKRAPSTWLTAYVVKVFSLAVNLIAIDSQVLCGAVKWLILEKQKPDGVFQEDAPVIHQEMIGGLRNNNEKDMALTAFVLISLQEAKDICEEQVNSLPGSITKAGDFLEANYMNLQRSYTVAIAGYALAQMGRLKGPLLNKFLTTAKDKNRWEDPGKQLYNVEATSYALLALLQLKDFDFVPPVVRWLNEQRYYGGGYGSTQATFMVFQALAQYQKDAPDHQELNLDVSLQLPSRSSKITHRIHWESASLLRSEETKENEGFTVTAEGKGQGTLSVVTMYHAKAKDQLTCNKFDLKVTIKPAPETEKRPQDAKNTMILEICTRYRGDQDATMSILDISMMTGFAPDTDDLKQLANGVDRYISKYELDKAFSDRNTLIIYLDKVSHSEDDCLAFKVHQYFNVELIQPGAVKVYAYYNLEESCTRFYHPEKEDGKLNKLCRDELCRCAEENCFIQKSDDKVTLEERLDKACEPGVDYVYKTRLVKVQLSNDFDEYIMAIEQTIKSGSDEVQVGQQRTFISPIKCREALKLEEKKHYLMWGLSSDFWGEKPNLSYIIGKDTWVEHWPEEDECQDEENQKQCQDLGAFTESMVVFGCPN
Chain of complement component C3 (P01024 23-665 P314L limits assumed, chain 1 of 2): as the sequence (P01024 23-665 P314L limits assumed, chain 1 of 2) above
Chain of complement component C3 (P01024 672-1663 limits assumed, chain 2 of 2): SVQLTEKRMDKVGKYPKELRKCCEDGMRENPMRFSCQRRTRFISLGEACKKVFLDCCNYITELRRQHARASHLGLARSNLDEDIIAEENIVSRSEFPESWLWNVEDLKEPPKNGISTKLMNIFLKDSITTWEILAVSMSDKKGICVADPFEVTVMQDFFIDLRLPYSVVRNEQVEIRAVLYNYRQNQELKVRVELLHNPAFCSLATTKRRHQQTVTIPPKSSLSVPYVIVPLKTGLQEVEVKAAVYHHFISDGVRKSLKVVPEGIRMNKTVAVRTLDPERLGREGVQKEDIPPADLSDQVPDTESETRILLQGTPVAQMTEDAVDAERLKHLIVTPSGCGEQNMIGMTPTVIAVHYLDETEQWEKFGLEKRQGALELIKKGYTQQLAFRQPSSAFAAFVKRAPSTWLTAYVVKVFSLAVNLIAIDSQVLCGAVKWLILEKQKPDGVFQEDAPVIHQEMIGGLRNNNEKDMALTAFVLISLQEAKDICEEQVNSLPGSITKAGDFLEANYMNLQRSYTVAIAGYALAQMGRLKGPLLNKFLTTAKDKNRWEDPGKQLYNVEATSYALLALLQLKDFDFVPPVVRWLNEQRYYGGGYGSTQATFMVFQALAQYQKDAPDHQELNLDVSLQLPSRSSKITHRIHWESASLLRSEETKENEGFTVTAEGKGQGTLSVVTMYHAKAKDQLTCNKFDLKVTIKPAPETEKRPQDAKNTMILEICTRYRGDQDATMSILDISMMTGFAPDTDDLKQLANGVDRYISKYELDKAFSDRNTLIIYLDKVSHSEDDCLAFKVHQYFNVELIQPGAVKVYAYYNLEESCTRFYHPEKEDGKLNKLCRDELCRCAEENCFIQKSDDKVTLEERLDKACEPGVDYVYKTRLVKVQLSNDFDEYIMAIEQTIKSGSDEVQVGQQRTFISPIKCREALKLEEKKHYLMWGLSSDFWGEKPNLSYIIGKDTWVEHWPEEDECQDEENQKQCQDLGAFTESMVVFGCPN

B1: ABM1-Cp20 (peptide)
peptide: ABM1-ICV[Trp(1-Me)]QDW[Sar]AHRC[NMeI]-NH2
modifications: disulfide 2-12
SMILES: CC[C@H](C)[C@H](NC(=O)CCNS(=O)(=O)c1ccc2ccccc2c1)C(=O)N[C@H]1CSSC[C@@H](C(=O)N(C)[C@H](C(N)=O)[C@@H](C)CC)NC(=O)[C@H](CCCNC(=N)N)NC(=O)[C@H](Cc2c[nH]cn2)NC(=O)[C@H](C)NC(=O)CN(C)C(=O)[C@H](Cc2c[nH]c3ccccc23)NC(=O)[C@H](CC(=O)O)NC(=O)[C@H](CCC(N)=O)NC(=O)[C@H](Cc2cn(C)c3ccccc23)NC(=O)[C@H](C(C)C)NC1=O
notes: also called ABMT-Cp20 (misprint of ABM1 in the text)
B1: the “IC50 (µM), inhibition of immune complex-induced (classical pathway) complement activation in human plasma, ELISA” value (from here on “IC50 (µM), inhibition”) in the assay with complement component C3 stood at 0.2 µM.

B2: Cp20 (Ac-Ile-[Cys-Val-Trp(Me)-Gln-Asp-Trp-Sar-Ala-His-Arg-Cys]-mIle-NH2) (peptide)
peptide: Ac-ICV[Trp(1-Me)]QDW[Sar]AHRC[NMeI]-NH2
modifications: disulfide 2-12
SMILES: CC[C@H](C)[C@H](NC(C)=O)C(=O)N[C@H]1CSSC[C@@H](C(=O)N(C)[C@H](C(N)=O)[C@@H](C)CC)NC(=O)[C@H](CCCNC(=N)N)NC(=O)[C@H](Cc2c[nH]cn2)NC(=O)[C@H](C)NC(=O)CN(C)C(=O)[C@H](Cc2c[nH]c3ccccc23)NC(=O)[C@H](CC(=O)O)NC(=O)[C@H](CCC(N)=O)NC(=O)[C@H](Cc2cn(C)c3ccccc23)NC(=O)[C@H](C(C)C)NC1=O
notes: Synthetic cyclic 13-residue peptide; also called compstatin analog Cp20; C20
Take B2: in assay [1], the Kd was 0.0029 µM; the koff (commonly a measure of how fast the partners let go of each other) is 0.0067 s⁻¹; the kon – broadly, the second-order rate constant of association – is 2.3e+06 M⁻¹ s⁻¹. Besides, in the assay with complement component C3, the “IC50 (µM), inhibition” value was 0.26 µM.

B3: ABM2-Cp20-miniPEG-Lys(biotin) (peptide)
peptide: ICVWQDWGAHRCIK
modifications: not fully specified; ABM2 amide-linked to the N-terminus; Trp(Me) at position 4; Sar at position 8; mIle at position 13; disulfide Cys2-Cys12; miniPEG (AEEEA) spacer between mIle13 and the C-terminal Lys; biotin on the Lys side chain; made on Rink amide resin (C-terminal amide)
notes: Captured on streptavidin-coated CM5 chip at about 100 RU; also called biotinylated ABM2-Cp20; immobilized ABM2-Cp20
Turning to B3, the Kd with baboon albumin is 106 µM.

B4: ABM2-Cp20 (ABM2-Ile-[Cys-Val-Trp(Me)-Gln-Asp-Trp-Sar-Ala-His-Arg-Cys]-mIle-NH2) (peptide)
peptide: ABM2-ICVWQDW[Sar]AHRC[NMeI]-NH2
modifications: disulfide 2-12; not fully specified (residue 4); printed as ABM2-Ile-[Cys-Val-Trp(Me)-Gln-Asp-Trp-Sar-Ala-His-Arg-Cys]-mIle-NH2
notes: also called ABM2-Compstatin 20
On to B4, for which the “IC50 (µM), inhibition” value in the assay with complement component C3 was found to be 0.17 µM.

Values taken from patent US20170173107A1 (University of Pennsylvania, published 2017).
